Laboratory results taken from patent publication US20230265151A1, “GIP/GLP1 CO-AGONIST COMPOUNDS” (priority 2020, published 2023).

What was measured:
Assay in all cases: cell-based or functional assay
human GIP receptor [1] = molecular target: T1, human GIP receptor (human, UniProt P48546 22-466)
T1 sequence (looked up): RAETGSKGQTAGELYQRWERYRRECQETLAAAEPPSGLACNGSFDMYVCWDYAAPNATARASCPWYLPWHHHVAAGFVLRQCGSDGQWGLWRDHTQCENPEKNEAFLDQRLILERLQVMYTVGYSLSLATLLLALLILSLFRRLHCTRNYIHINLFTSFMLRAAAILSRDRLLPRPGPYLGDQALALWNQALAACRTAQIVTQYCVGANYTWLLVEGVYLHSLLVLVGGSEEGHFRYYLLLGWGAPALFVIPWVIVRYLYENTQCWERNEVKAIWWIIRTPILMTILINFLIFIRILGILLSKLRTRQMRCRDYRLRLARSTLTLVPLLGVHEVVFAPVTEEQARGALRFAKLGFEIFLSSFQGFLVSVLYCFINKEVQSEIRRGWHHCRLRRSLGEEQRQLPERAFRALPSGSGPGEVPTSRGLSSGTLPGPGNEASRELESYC

human GLP-1 receptor [2] = molecular target: human GLP-1 receptor (human, UniProt P43220 24-463)
human glucagon receptor = human glucagon receptor (human, UniProt P47871 26-477)
human GLP-1 receptor [3] = molecular target: human GLP-1 receptor (human, UniProt P43220 24-463); remark: listed apart in the source
human GIP receptor [4] = molecular target: T2, human GIP receptor (human, UniProt P48546 22-466); remark: listed apart in the source
T2 sequence (looked up): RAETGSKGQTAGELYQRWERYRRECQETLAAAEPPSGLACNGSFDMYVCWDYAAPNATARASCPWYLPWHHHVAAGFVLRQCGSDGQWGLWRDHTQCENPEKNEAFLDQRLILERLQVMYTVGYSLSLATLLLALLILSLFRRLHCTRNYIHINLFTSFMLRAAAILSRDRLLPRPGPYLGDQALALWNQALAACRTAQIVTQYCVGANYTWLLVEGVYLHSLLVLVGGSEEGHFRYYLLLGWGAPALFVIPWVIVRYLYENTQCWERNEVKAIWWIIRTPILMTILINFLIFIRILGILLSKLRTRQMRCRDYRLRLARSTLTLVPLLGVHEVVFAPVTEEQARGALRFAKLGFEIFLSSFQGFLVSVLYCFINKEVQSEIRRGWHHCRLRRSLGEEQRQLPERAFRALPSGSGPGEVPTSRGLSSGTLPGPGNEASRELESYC

Binder	EC50, cAMP (human GIP receptor [1]) [nM]	Emax, cAMP (human GIP receptor [1]) [%]	EC50, cAMP (human GLP-1 receptor [2]) [nM]	EC50, cAMP (human glucagon receptor) [nM]	Emax, cAMP (human GLP-1 receptor [2]) [%]	cAMP EC50 (1.0% HSA) (human GLP-1 receptor [3]) [nM]	cAMP EC50 (1.0% HSA) (human GIP receptor [4]) [nM]
YXEGTXTSDXSIXLDXKAQXEFIXXLIEGGPSSGAPPPSK (Aib2, αMeF(2F)6, 4Pal10, αMeL13, Orn16, Aib20, D-Glu24, αMeY25, K17 and K40: K(AEEA2-(γ-Glu)-CO-(CH2)12-CO2H), C-terminal NH2) [Example 19]	0.0158	96.6	1.34	> 9950			
YXEGTXTSDXSIXLDXKAQXEFIXXLIEGGPSSGAPPPSK (Aib2, αMeF(2F)6, 4Pal10, αMeL13, Orn16, Aib20, D-Glu24, αMeY25, K17 and K40: K(AEEA2-(γ-Glu)-CO-(CH2)14-CH3), C-terminal NH2) [Example 25]	0.00243		0.00426	> 9950			
YXEGTXTSDXSIXLDXIAQXEFIXXLIKGGKSSGAPPPS (Aib2, αMeF(2F)6, 4Pal10, αMeL13, Orn16, Aib20, D-Glu24, αMeY25, K28 and K31: K(AEEA2-(γ-Glu)-CO-(CH2)12-CO2H), C-terminal NH2) [Example 20]	0.00985	98.8	0.552	> 9950			
YXEGTXTSDXSIXLDXKAQXEFIXXLIEGGKSSGAPPPS (Aib2, αMeF(2F)6, 4Pal10, αMeL13, Orn16, Aib20, D-Glu24, αMeY25, K17 and K31: K(AEEA2-(γ-Glu)-CO-(CH2)12-CO2H), C-terminal NH2) [Example 1]	0.0145	90.2	0.925	> 9950			
YXEGTXTSDKSIXLDXKAQXEFIXXLIEGGPSSGAPPPS (Aib2, αMeF(2F)6, αMeL13, Orn16, Aib20, D-Glu24, αMeY25, K10 and K17: K(AEEA2-(γ-Glu)-CO-(CH2)14-CH3), C-terminal NH2) [Example 29]	0.00252		0.00468	> 9950	100		
YXEGTXTSDXSIXLDXKAQXEFIXXLIEGGKSSGAPPPS (Aib2, αMeF(2F)6, Bzt10, αMeL13, Orn16, Aib20, D-Glu24, αMeY25, K17 and K31: K(AEEA2-(γ-Glu)-CO-(CH2)12-CO2H), C-terminal NH2) [Example 142]	0.0317			> 9950			
YXEGTXTSDXGIXLDXKAQXEFIXXLIEGGKSSGAPPPS (Aib2, αMeF(2F)6, 4Pal10, αMeL13, Orn16, Aib20, D-Glu24, αMeY25, K17 and K31: K(AEEA2-(γ-Glu)-CO-(CH2)12-CO2H), C-terminal NH2) [Example 100]			11.4	> 9950	111		
YXEGTXTSDXSKXLDXKAQXEFIXXLIEGGPSSGAPPPS (Aib2, αMeF(2F)6, 4Pal10, αMeL13, Orn16, Aib20, D-Glu24, αMeY25, K12 and K17: K(AEEA2-(γ-Glu)-CO-(CH2)12-CO2H), C-terminal NH2) [Example 28]	0.0554	95.4	2.65	> 9950			
YXEGTXTSDXSIXLDXKAQXEFIXXLIKGGPSSGAPPPS (Aib2, αMeF(2F)6, 4Pal10, αMeL13, Orn16, Aib20, D-Glu24, αMeY25, K17 and K28: K(AEEA2-(γ-Glu)-CO-(CH2)14-CH3), C-terminal NH2) [Example 23]	0.00299		0.00722	> 9950			
YXEGTXTSDXSIXLDXKAQXEFIXKLIEGGPSSGAPPPS (Aib2, αMeF(2F)6, 4Pal10, αMeL13, Orn16, Aib20, D-Glu24, K17 and K25: K(AEEA2-(γ-Glu)-CO-(CH2)14-CH3), C-terminal NH2) [Example 32]	0.002		0.0063	> 9950	119		
YXEGTXTSDXSIXLDXKAQXKFIXXLIEGGPSSGAPPPS (Aib2, αMeF(2F)6, 4Pal10, αMeL13, Orn16, Aib20, D-Glu24, αMeY25, K17 and K21: K(AEEA2-(γ-Glu)-CO-(CH2)14-CH3), C-terminal NH2) [Example 21]	0.00347		0.00655	> 9950			
YXEGTXTSDXXIXLDXQAQXEFIKXLIKGGPSSGAPPPS (Y-Aib-EGT-αMeF(2F)-TSD-4Pal-Aib-I-αMeL-LD-Orn-QAQ-Aib-EFIK((2-[2-(2-Amino-ethoxy)-ethoxy]-acetyl)3-(γ-Glu)-CO-(CH2)12-CO2H)-αMeY-LIK((2-[2-(2-Amino-ethoxy)-ethoxy]-acetyl)3-(γ-Glu)-CO-(CH2)12-CO2H)GGPSSGAPPPS-NH2) [Example 460]						6.31	0.506
